# Earlier results as cited in patent US10487153B2, “Carbonic anhydrase IX-specific antibodies and uses thereof” (National Research Council of Canada, priority 2015, dated 2019).
# Molecular target: T1, CA-IX (Homo sapiens, UniProt Q16790)
# T1 construct: host or cells: patients' own tumour tissue (endogenous)
# Details: >6-year span; compared to a placebo; cited from earlier work
substance,measurement,value
"cG250: chimeric version of anti-CA-IX mAb G250, developed as a therapeutic antibody",disease-free survival rate of patients,not improve the disease-free survival rate
